Results reported in PMC10786891, “Massively parallel profiling of RNA-targeting CRISPR-Cas13d”.
Changes are numbered by the printed parent chain.

Target: T1, EsCas13d, nuclease-dead (Eubacterium siraeum, UniProt B0MS50, R295A;H300A;R849A;H854A)
T1 sequence: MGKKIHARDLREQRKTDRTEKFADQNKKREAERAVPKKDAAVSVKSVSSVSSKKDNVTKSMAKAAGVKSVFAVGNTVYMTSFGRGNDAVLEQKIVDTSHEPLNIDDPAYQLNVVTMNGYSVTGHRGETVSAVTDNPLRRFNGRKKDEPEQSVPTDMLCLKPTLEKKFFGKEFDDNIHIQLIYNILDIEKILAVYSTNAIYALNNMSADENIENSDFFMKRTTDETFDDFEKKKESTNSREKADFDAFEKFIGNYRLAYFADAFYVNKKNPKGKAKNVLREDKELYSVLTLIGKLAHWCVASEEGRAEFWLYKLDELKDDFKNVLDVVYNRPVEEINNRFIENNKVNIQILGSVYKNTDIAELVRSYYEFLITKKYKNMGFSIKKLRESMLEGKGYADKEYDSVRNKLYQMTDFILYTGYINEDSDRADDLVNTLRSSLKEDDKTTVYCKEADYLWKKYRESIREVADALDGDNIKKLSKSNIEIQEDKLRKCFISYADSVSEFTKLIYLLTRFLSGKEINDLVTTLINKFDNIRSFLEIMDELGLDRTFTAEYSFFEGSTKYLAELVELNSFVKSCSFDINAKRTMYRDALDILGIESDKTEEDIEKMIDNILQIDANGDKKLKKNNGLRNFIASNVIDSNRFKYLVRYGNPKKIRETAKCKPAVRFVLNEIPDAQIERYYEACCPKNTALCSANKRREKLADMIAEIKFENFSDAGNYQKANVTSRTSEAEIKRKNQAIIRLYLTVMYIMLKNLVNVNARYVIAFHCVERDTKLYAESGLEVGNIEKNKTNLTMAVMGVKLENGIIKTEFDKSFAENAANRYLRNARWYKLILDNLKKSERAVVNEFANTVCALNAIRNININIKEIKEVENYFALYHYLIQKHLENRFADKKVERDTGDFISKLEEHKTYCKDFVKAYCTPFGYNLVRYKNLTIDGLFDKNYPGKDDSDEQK
Experiment: crRNA (strand 1, pre-loaded); Mg2+; 40 mM Tris-HCl pH 7.5, 150 mM NaCl, 6 mM MgCl2, 1 mM DTT, 0.1% Tween-20, 0.2 mg/ml BSA; 25 C; 10 min per concentration, then washed
Settings: tags: His6-TwinStrep-SUMO cleaved; N-terminal SNAP kept (SNAP-Surface 488); label: 3' end held by stalled T7 RNA polymerase

B1: target 1 MT 5'PFS AAA 3'PFS AUG (mixed)
RNA 1: CACCCGUGCAAAAAUGCAGGGGUCUAAAACUGAGCGGAUAACCUCUCUAUGG
RNA 2: GGGAAUGGAUCCACAUCUACGAAUUCAAACCAUAGAGAGGUUAUCCGCUCAAUGAGAUCGGAAGAGCACACGU
B1 gave a Kd of 28.5 ± 8 nM.

B2: target 1 MT 5'PFS AUA 3'PFS UUC (mixed)
RNA 1: B1 RNA 1
RNA 2: B1 RNA 2 with A28U, A52U, G54C
Binder B2 has a Kd of 16.5 ± 5.5 nM.

B3: target 1 MT 5'PFS AUA 3'PFS UUG (mixed)
RNA 1: B1 RNA 1
RNA 2: B1 RNA 2 with A28U, A52U
B3 was tested, and the Kd was 10.8 ± 2.45 nM.

B4: target 1 MT 5'PFS ACA 3'PFS AAC (mixed)
RNA 1: B1 RNA 1
RNA 2: B1 RNA 2 with A28C, U53A, G54C
B4 gave a Kd of 15.3 ± 4.85 nM.

B5: target 1 MT 5'PFS GGA 3'PFS UUG (mixed)
RNA 1: B1 RNA 1
RNA 2: B1 RNA 2 with A27G, A28G, A52U
B5 showed a Kd of 8.9 ± 0.8 nM.

B6: target 1 MT 5'PFS AAA 3'PFS AUU (mixed)
RNA 1: B1 RNA 1
RNA 2: B1 RNA 2 with G54U
Binder B6 has a Kd of 28 ± 9.5 nM.

B7: target 1 MT 5'PFS AAC 3'PFS CUA (mixed)
RNA 1: B1 RNA 1
RNA 2: B1 RNA 2 with A29C, A52C, G54A
With B7 the Kd was 39 ± 19.5 nM.

B8: target 1 insG 3' of 10,insU 3' of 4 (mixed)
RNA 1: B1 RNA 1
RNA 2: GGGAAUGGAUCCACAUCUACGAAUUCGUACCAUAGAGAGGUUGAUCCGCUUCACCGAGAUCGGAAGAGCACACGU
With B8 the Kd was 32 ± 7 nM.

B9: target 1 MT 5'PFS GGC 3'PFS ACU (mixed)
RNA 1: B1 RNA 1
RNA 2: B1 RNA 2 with A27G, A28G, A29C, U53C, G54U
B9 gave a Kd of 14.4 ± 1.55 nM.

B10: target 1 MT 5'PFS UGC 3'PFS UAC (mixed)
RNA 1: B1 RNA 1
RNA 2: B1 RNA 2 with A27U, A28G, A29C, A52U, U53A, G54C
B10 gave a Kd of 32 ± 10.5 nM.

B11: target 1 MT 5'PFS ACG 3'PFS AGC (mixed)
RNA 1: B1 RNA 1
RNA 2: B1 RNA 2 with A28C, A29G, U53G, G54C
B11 was tested, and the Kd was about 31 nM.

B12: target 1 MT 5'PFS GCC 3'PFS UCC (mixed)
RNA 1: B1 RNA 1
RNA 2: B1 RNA 2 with A27G, A28C, A29C, A52U, U53C, G54C
For B12, the Kd was 12.6 ± 4.75 nM.

B13: target 1 MT 5'PFS GCC 3'PFS UCA (mixed)
RNA 1: B1 RNA 1
RNA 2: B1 RNA 2 with A27G, A28C, A29C, A52U, U53C, G54A
B13 showed a Kd of 27.5 ± 10 nM.

B14: target 1 insU 3' of 6,insA 3' of 4 (mixed)
RNA 1: B1 RNA 1
RNA 2: B8 RNA 2 with G43A, A44U, U45C, C47U, U50A
B14 was tested, and the Kd was 7.9 ± 0.6 nM.

B15: target 1 MT 5'PFS GGA 3'PFS UUC (mixed)
RNA 1: B1 RNA 1
RNA 2: B1 RNA 2 with A27G, A28G, A52U, G54C
B15 gave a Kd of 13.3 ± 2.5 nM.

B16: target 1 MT 5'PFS GCC 3'PFS UCU (mixed)
RNA 1: B1 RNA 1
RNA 2: B1 RNA 2 with A27G, A28C, A29C, A52U, U53C, G54U
In the case of B16, the Kd is reported as 12.2 ± 2.85 nM.

B17: target 1 MT 5'PFS ACA 3'PFS AAA (mixed)
RNA 1: B1 RNA 1
RNA 2: B1 RNA 2 with A28C, U53A, G54A
Work on B17 yielded a Kd of about 49 nM.

B18: target 1 MT 5'PFS GCC 3'PFS UCG (mixed)
RNA 1: B1 RNA 1
RNA 2: B1 RNA 2 with A27G, A28C, A29C, A52U, U53C
For B18, the Kd was 15.3 ± 3 nM.
